The record followed here is paper PMC7896056.

The target in assay [1] is SIRT1 (183–510+GS+641–665) (human) (UniProt Q96EB6). As to the kind of experiment: ITC; Ac-p53 peptide (500 μM) titrated into 10 μM SIRT1 (183–510+GS+641–665), no activator; 25 °C; 20 mM HEPES pH 7.4, 150 mM NaCl, 0.5% ethanol; one-site model. On the technique in general: In ITC the heat of successive injections is recorded.
Assay [2] has the same target. As to the kind of experiment: ITC; Ac-p53 peptide (500 μM) titrated into 10 μM SIRT1 (183–510+GS+641–665) in the presence of 0.2 mM KPMF-8; 25 °C; 20 mM HEPES pH 7.4, 150 mM NaCl, 0.5% ethanol; one-site model.
Assay [3] shares this target. As to the kind of experiment: ITC; Ac-p53 peptide (500 μM) titrated into 10 μM SIRT1 (183–510+GS+641–665) in the presence of 0.2 mM resveratrol; 25 °C; 20 mM HEPES pH 7.4, 150 mM NaCl, 0.5% ethanol; one-site model.

pKd: −log10 of the molar value.

Sequence of UniProt Q96EB6 (Q96EB6 other isoform, or with tags, fused parts or gaps): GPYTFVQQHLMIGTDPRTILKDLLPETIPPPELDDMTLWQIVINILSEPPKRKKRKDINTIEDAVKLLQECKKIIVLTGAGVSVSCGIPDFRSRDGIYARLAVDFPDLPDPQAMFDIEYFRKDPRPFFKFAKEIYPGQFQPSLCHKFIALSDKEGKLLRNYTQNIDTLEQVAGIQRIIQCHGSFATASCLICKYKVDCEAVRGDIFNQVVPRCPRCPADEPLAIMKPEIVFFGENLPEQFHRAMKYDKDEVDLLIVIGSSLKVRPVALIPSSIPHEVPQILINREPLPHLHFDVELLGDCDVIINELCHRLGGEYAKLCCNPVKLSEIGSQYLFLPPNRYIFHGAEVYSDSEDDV

What is called pKd is −log10 of the Kd, conventionally taken in molar units. Regarding native Ac-p53 peptide, the pKd in assay [1] was 4.26; in assay [2], 5.18; in assay [3], 4.41.
